US20230192896A1 (BIOVERATIV THERAPEUTICS, published 2023)
Where a chain is given by its changes, count along the chain named.

What was measured:
[1] = target: T1, free FIXa (activated Factor IX) (human, UniProt P00740 47-191; P00740 227-461); assay: BLI, IgG on AHQ sensor, 100 nM antigen (the weaker partner)
T1 construct: BLI antigen bought from Haematologic Technologies (HCIXA-0050); also called factor IXa

FX zymogen [2] = target: T2, FX zymogen (Homo sapiens (Human), UniProt P00742 41-179; P00742 183-488); assay: not stated (Table 3)
T2 construct: Light and heavy chain of secreted FX zymogen, disulfide linked; also called Factor X zymogen; factor X zymogen
T2 sequence (P00742 41-179, chain 1 of 2): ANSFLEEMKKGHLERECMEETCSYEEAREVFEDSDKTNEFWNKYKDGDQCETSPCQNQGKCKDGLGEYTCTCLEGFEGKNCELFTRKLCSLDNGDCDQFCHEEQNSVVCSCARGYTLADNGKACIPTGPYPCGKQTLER
T2 sequence (P00742 183-488, chain 2 of 2): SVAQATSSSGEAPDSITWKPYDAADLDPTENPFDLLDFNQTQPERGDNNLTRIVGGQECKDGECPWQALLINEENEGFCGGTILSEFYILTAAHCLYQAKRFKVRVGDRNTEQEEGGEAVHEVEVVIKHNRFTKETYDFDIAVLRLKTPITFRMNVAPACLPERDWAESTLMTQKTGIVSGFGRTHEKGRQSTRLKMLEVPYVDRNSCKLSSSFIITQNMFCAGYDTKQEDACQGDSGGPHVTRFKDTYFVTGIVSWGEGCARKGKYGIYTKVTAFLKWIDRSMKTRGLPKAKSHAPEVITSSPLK

FXa-SM (FXa+EGR-CMK) = target: T3, FXa-SM (FXa+EGR-CMK) (human, UniProt P00742 41-179; P00742 235-488, EGR-CMK covalently bound to the active site); assay: BLI; class meaning: paragraph 285
T3 construct: Bought from Haematologic Technologies (HCXA-EGR); also called covalently modified FXa; FXa mimic
T3 sequence (P00742 41-179, chain 1 of 2): as the sequence (P00742 41-179, chain 1 of 2) above
T3 sequence (P00742 235-488, chain 2 of 2): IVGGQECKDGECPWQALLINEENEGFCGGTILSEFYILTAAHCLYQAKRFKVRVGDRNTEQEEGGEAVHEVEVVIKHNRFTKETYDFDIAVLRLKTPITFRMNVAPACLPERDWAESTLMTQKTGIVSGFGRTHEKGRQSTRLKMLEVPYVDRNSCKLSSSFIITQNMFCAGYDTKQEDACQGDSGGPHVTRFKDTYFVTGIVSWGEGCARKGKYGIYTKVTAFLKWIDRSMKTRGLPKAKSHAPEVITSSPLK

[3] = target: T1, free FIXa (activated Factor IX); assay: yeast display selection and BLI as in Examples 1 and 5
[4] = target: T1, free FIXa (activated Factor IX); assay: BLI, 200 nM FIXa in HBS with or without 5 mM CaCl2
FIXa-SM (FIXa+EGR-CMK) [5] = target: T4, FIXa-SM (FIXa+EGR-CMK) (human, UniProt P00740 47-191; P00740 227-461, EGR-CMK (L-Glu-Gly-Arg chloromethyl ketone) covalently bound to the active site); assay: BLI; class meaning: paragraph 914
T4 construct: BLI antigen bought from Haematologic Technologies (HCIXA-EGR); also called FIXa with substrate mimic

[6] = target: T5, FIX zymogen (non-activatable FIX) (human, UniProt P00740 47-461); assay: not stated (FIG. 24B)
T5 construct: also called FIXn; Factor IX zymogen

[7] = target: T1, free FIXa (activated Factor IX); assay: not stated (FIG. 24B)
FX zymogen [8] = target: T2, FX zymogen; assay: not stated (FIG. 24B)
[9] = target: T1, free FIXa (activated Factor IX); assay: cell-based or functional assay
[10] = target: T1, free FIXa (activated Factor IX); assay: Fab mixed 1.5:1 with FIXa, complex purified by size exclusion chromatography
FIXa-SM (FIXa+EGR-CMK) [11] = target: T4, FIXa-SM (FIXa+EGR-CMK); assay: BLI co-binding: biotinylated FIXa-SM on streptavidin sensor, then 100 nM bispecific, then 200 nM FX

B1: BIIB-9-397 (antibody, V domains shown)
VH: QVQLQESGPGLVKPSETLSLTCAVSGYSISSGYYWAWIRQPPGKGLEWIGSIYHSGSTYYNPSLKSRVTISVDTSKNQFSLKLSSVTAADTAVYYCARDVWYVGGFDPWGQGTLVTVSS
VL: DIQMTQSPSSLSASVGDRVTITCQASQDISNYLNWYQQKPGKAPKLLIYDASNLETGVPSRFSGSGSGTDFTFTISSLQPEDIATYYCQQSDDHPPTFGGGTKVEIK
notes: IgG
Question: Does B1 bind [1]?
Answer: binds

B2: BS-027 (antibody, V domains shown)
VH: EVQLVQSGAEVKKPGESLKISCKGSGYSFTTYWIGWVRQMPGKGLEWMGIIYPGDSDTRYSPSFQGQVTISADKSISTAYLQWSSLKASDTAMYYCARGRFRPRGRFDYWGQGTLVTVSS
VL: EIVMTQSPATLSVSPGERATLSCRASQSVSSNLAWYQQKPGQAPRLLIYGASTRATGIPARFSGSGSGTEFTLTISSLQSEDFAVYYCQQLFNHPPTFGGGTKVEIK
notes: also called anti-FX arm of BS-027025 and BS-027125; BS-027 FX homodimer
Question: For B2, which Kd (FX zymogen [2]) is on record?
Answer: 20 nM

B3: BIIB-9-578 (antibody, V domains shown)
VH: QLQLQESGPGLVKPSETLSLTCTVSGGSISSSSYYWGWIRQPPGKGLEWIGSISYSGSTYYNPSLKSRVTISVDTSKNQFSLKLSSVTAADTAVYYCARDKYQDYSFDIWGQGTMVTVSS
VL: DIQMTQSPSSVSASVGDRVTITCRASQGIDSWLAWYQQKPGKAPKLLIYAASSLQSGVPSRFSGSGSGTDFTLTISSLQPEDFATYYCQQANFLPFTFGGGTKVEIK
notes: IgG
Question: Does B3 bind [1]?
Answer: binds

B4: BIIB-12-1320 (antibody, V domains shown)
VH: QLQLQESGPGLVKPSETLSLTCTVSGGSISSSSYYWGWIRQPPGKGLEWIGSIYYSGSTYYNPSLKSRVTISVDTSKNQFSLKLSSVTAADTAVYYCARGSGLLVREHYYYYMDVWGKGTTVTVS
VL: B3 VL with V11L, G28S, D30S, W32Y, A34N, N92D, F93D, L94T, F96W
notes: IgG
Question: Does B4 bind (FXa-SM (FXa+EGR-CMK))?
Answer: binds

B5: BIIB-9-631 (antibody, V domains shown)
VH: QVQLVQSGAEVKKPGASVKVSCKASGYTFTSYYMHWVRQAPGQGLEWMGIINPSGGSTSYAQKFQGRVTMTRDTSTSTVYMELSSLRSEDTAVYYCARAENRGDYEAWGQGTLVTVSS
VL: B3 VL with D30S, S31R, A91R, N92T, F93S, L94F, F96L
notes: IgG
Question: Does B5 bind [1]?
Answer: binds

B6: BIIB-9-3681 (antibody, V domains shown)
VH: B3 VH with S32G, G37N, S54Q, Y55P
VL: B3 VL
notes: daughter of BIIB-9-578
Question: Does B6 bind [3]?
Answer: binds

B7: BIIB-9-3780 (antibody, V domains shown)
VH: B3 VH with F107V
VL: B3 VL
notes: daughter of BIIB-9-578
Question: Does B7 bind [3]?
Answer: binds

B8: BIIB-9-3698 (antibody, V domains shown)
VH: B3 VH with S30A, G37S, S54R, Y55G
VL: B3 VL
notes: daughter of BIIB-9-578
Question: Does B8 bind [3]?
Answer: binds

B9: BIIB-9-3675 (antibody, V domains shown)
VH: B3 VH with S32T, G37V, S54T, Y55A
VL: B3 VL
notes: daughter of BIIB-9-578
Question: Does B9 bind [3]?
Answer: binds

B10: BIIB-9-3684 (antibody, V domains shown)
VH: B3 VH with S32V, G37N, S54T, Y60Q
VL: B3 VL
notes: daughter of BIIB-9-578
Question: Does B10 bind [3]?
Answer: binds

B11: BIIB-9-3704 (antibody, V domains shown)
VH: QVQLQESGPGLVKPSQTLSLTCTVSGGSISSGAYAWSWIRQHPGKGLEWIGYIYYQGKTYYNPSLKSRVTISVDTSKNQFSLKLSSVTAADTAVYYCARDKYQDYSFDIWGQGTMVTVSS
VL: B3 VL
notes: daughter of BIIB-9-578
Question: Does B11 bind [3]?
Answer: binds

B12: BIIB-9-612 (antibody, V domains shown)
VH: QVQLVQSGAEVKKPGASVKVSCKASGYTFTSYYMHWVRQAPGQGLEWMGIINPSGGSTSYAQKFQGRVTMTRDTSTSTVYMELSSLRSEDTAVYYCARDAGYHWYGMDVWGQGTTVTVSS
VL: EIVLTQSPATLSLSPGERATLSCRASQSVSRYLAWYQQKPGQAPRLLIYDASNRATGIPARFSGSGSGTDFTLTISSLEPEDFAVYYCQQSSLFPLTFGGGTKVEIK
notes: IgG
Question: Does B12 bind [1]?
Answer: binds

B13: BIIB-12-1321 (antibody, V domains shown)
VH: QVQLVQSGAEVKKPGSSVKVSCKASGGTFSSYAISWVRQAPGQGLEWMGGIIPIFGTANYAQKFQGRVTITADESTSTAYMELSSLRSEDTAVYYCARTPDTSSATDWGQGTLVTVSS
VL: B12 VL with L4M, R31S, A51S, S91F, S92T, L93N, F94L, L96Y
notes: IgG
Question: Does B13 bind (FXa-SM (FXa+EGR-CMK))?
Answer: binds

B14: BIIB-9-3745 (antibody, V domains shown)
VH: QVQLVQSGAEVKKPGASVKVSCKASGYTFTGYPMHWVRQAPGQGLEWMGSINPSRGSTSYAQKFQGRVTMTRDTSTSTVYMELSSLRSEDTAVYYCARDGPRVSDYYMDVWGKGTTVTVSS
VL: B12 VL with R31S, S91R, S92D, L93N, F94W, L96F
notes: daughter of BIIB-9-619
Question: Does B14 bind [3]?
Answer: binds

B15: BIIB-12-894 (antibody, V domains shown)
VH: QLQLQESGPGLVKPSETLSLTCTVSGGSISSSSYYWGWIRQPPGKGLEWIGSIYYSGSTYYNPSLKSRVTISVDTSKNQFSLKLSSVTAADTAVYYCAREGAHSSMAGLDVWGQGTMVTVSS
VL: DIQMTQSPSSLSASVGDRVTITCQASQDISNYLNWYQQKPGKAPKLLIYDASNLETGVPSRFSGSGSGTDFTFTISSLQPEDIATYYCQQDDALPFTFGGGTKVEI
notes: IgG
Question: Does B15 bind (FXa-SM (FXa+EGR-CMK))?
Answer: binds

B16: BIIB-9-484 (antibody, V domains shown)
VH: EVQLVESGGGLVKPGGSLRLSCAASGFTFSSYSMNWVRQAPGKGLEWVSSISSSSSYIYYADSVKGRFTISRDNAKNSLYLQMNSLRAEDTAVYYCARDVGGYAGYYGMDVWGQGTTVTVSS
VL: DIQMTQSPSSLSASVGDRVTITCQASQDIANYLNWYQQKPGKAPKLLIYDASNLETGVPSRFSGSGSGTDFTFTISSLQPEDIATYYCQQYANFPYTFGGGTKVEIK
notes: IgG
Question: Does B16 bind [4]?
Answer: binds

Question: Does B16 bind (FIXa-SM (FIXa+EGR-CMK) [5])?
Answer: binds

B17: BS-027125 (bispecific antibody, V domains shown)
VH 1: B16 VH with S30G, S33D, S54G, S55E, D62E
VL 1: not shown
VH 2: B2 VH
VL 2: B2 VL
Question: With B17 as the binder, how does the Kd [6] read?
Answer: 8 nM

Question: And the Kd [7]?
Answer: 2 nM

Question: And the Kd (FX zymogen [8])?
Answer: 20 nM

Question: What about the “rate of substrate (ADG299) cleavage by FIXa (amidolytic activity)” value (shortened to “rate of substrate (ADG299) cleavage”) [9] of the same binder?
Answer: 3 fold

B18: Fab portion of BIIB-9-484 (Fab, V domains shown)
VH: B16 VH
VL: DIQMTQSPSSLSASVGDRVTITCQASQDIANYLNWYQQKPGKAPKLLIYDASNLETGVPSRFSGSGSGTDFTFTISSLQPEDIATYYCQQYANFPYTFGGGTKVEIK
notes: Fab
Question: Does B18 bind [10]?
Answer: binds

B19: BIIB-9-1335 (antibody, V domains shown)
VH: B16 VH with S33D, N35H, S54G
VL: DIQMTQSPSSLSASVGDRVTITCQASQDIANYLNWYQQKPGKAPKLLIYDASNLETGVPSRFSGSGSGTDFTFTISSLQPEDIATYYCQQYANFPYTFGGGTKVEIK
Question: With B19 as the binder, how does the “rate of ATIII inhibition of FIXa (ATIII-FIXa complex band on gel)” value [9] read?
Answer: ~3 fold

B20: BIIB-9-1336 one-armed (antibody, V domains shown)
VH: B16 VH with S30G, S33D, S54G, S55E, D62E
VL: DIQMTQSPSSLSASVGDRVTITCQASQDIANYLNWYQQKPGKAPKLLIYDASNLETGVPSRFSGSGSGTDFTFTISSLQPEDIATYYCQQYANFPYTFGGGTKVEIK
Question: Which “rate of substrate (ADG299) cleavage” value [9] does the source give for B20 here?
Answer: 3 fold

B21: BIIB-9-3764 (antibody, V domains shown)
VH: B16 VH with S30G, S33D, S54G, S55E, D62E
VL: DIQMTQSPSSLSASVGDRVTITCGANQYISDYLNWYQQKPGKAPKLLIYDAANLHTGVPSRFSGSGSGTDFTFTISSLQPEDIATYYCQQYARFPYTFGGGTKVEIK
Question: Does B21 bind [3]?
Answer: binds

B22: BIIB-9-484/BIIB-12-917 (bispecific antibody, V domains shown)
VH 1: B16 VH
VL 1: not shown
VH 2: B2 VH
VL 2: B2 VL
Question: Does B22 bind (FIXa-SM (FIXa+EGR-CMK) [11])?
Answer: binds

B23: BIIB-9-1336 (antibody, V domains shown)
VH: B16 VH with S30G, S33D, S54G, S55E, D62E
VL: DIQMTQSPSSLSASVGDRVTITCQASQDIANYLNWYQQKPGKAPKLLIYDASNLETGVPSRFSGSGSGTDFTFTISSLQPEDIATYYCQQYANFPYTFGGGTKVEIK
Question: B23 was tested. Which “rate of ATIII inhibition of FIXa (ATIII-FIXa complex band on gel)” value [9] did it give?
Answer: ~3 fold

Question: What about the “rate of substrate (ADG299) cleavage” value [9] of the same binder?
Answer: 3 fold
